Among the data in the supplement of paper PMC12783771 are sfGFP reporter fluorescence values, retold here.

B1: library; numbered along this chain (parent)
chain: MNIQIGELAKRTACPVVTIRFYEQEGLLPPPGRSRGNFRLYGEEHVERLQFIRHCRSLDMPLSDVRTLLSYRKRPDQDCGEVNMLLDEHIRQVESRIGALLELKHHLVELREACSGARPAQSCGILQGLSDCVCDTRGTTAHPSD

± gives the standard deviation of the averaged measurements.

Series [1] covers variants of B1. The experiment in a line: sfGFP reporter fluorescence (15 h) (µM FITC); higher = higher leak. The note with it: library round: Round 0; ligand: none. A digest of the protocol: (§1)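 Linear PbrR templates were made by PCR, normalized to 5 nM with an Echo, and expressed in BL21 Star (DE3) PANOx-SP extract with the pPbrR-sfGFP reporter plasmid and 30 μg/mL GamS. Echo-assembled 1 μL reactions held 1 µM lead chloride, 30 µM zinc acetate or no metal and were incubated 15 hr at 30 °C. Endpoint sfGFP fluorescence was read on a Synergy Neo2 and expressed as µM FITC using standard curves. Up to three biological replicates were run.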

The variants in series [2] derive from B1. The experiment in a line: sfGFP reporter fluorescence (15 h) (µM FITC); higher = stronger transcriptional activation. The note with it: library round: Round 0. The procedure, abridged:
as §1

In the case of R39W, the sfGFP reporter fluorescence in series [1] turned out to be 0.05956 ± 0.00026; in series [2] (ligand: 1 µM Pb), 0.0599 ± 0.00078; in series [2] (ligand: 30 µM Zn), 0.06011 ± 0.00052.
As to R39P, the sfGFP reporter fluorescence in series [1] amounted to 0.0581 ± 0.00078; in series [2] (ligand: 1 µM Pb) it was 0.0597 ± 0.001; in series [2] (ligand: 30 µM Zn), 0.0581 ± 0.0029.
On to R39V, for which the values for the sfGFP reporter fluorescence in series [1], in series [2] (ligand: 1 µM Pb) and in series [2] (ligand: 30 µM Zn) were 0.0588 ± 0.00078, 0.05882 ± 0.00026 and 0.05736 ± 0.00026, respectively.
Turning to R39F, the sfGFP reporter fluorescence in series [1] came to 0.0597 ± 0.001; in series [2] (ligand: 1 µM Pb), 0.0588 ± 0.0013; in series [2] (ligand: 30 µM Zn) it was 0.0555 ± 0.0018.
Turning to R39L, the sfGFP reporter fluorescence is 0.0581 ± 0.0013 in series [1], 0.05901 ± 0.00052 in series [2] (ligand: 1 µM Pb) and 0.055 ± 0.0036 in series [2] (ligand: 30 µM Zn).
In the case of R39I, the sfGFP reporter fluorescence was 0.0572 ± 0.0015 in series [1], 0.0566 ± 0.0018 in series [2] (ligand: 1 µM Pb) and 0.0726 ± 0.0042 in series [2] (ligand: 30 µM Zn).
R39G: the sfGFP reporter fluorescence in series [1] worked out at 0.0555 ± 0.00078; in series [2] (ligand: 1 µM Pb), 0.0563 ± 0.0023; in series [2] (ligand: 30 µM Zn), 0.0563 ± 0.0018.
On to R39C, for which the sfGFP reporter fluorescence in series [1] was found to be 0.0599 ± 0.0013; in series [2] (ligand: 1 µM Pb), 0.061 ± 0.00078; in series [2] (ligand: 30 µM Zn), 0.057 ± 0.0029.
For R39T, the sfGFP reporter fluorescence worked out at 0.0616 ± 0.001 in series [1], 0.0608 in series [2] (ligand: 1 µM Pb) and 0.06029 ± 0.00026 in series [2] (ligand: 30 µM Zn).
On to M60L D64K L107C, for which the sfGFP reporter fluorescence in series [1] was found to be 5.66 ± 0.2; in series [2] (ligand: 1 µM Pb), 5.25 ± 0.066; in series [2] (ligand: 30 µM Zn), 5.27 ± 0.24.
Take L40A: the figures for the sfGFP reporter fluorescence in series [1], in series [2] (ligand: 1 µM Pb) and in series [2] (ligand: 30 µM Zn) were 0.0608 ± 0.0031, 0.0658 ± 0.0018 and 0.207 ± 0.0036, respectively.
In the case of M60E, the sfGFP reporter fluorescence amounted to 0.107 ± 0.00052 in series [1], 0.463 ± 0.039 in series [2] (ligand: 1 µM Pb) and 1.67 ± 0.012 in series [2] (ligand: 30 µM Zn).
For the variant M60D, the sfGFP reporter fluorescence in series [1] amounted to 0.0616 ± 0.001; in series [2] (ligand: 1 µM Pb), 0.0619 ± 0.0015; in series [2] (ligand: 30 µM Zn) it was 0.063 ± 0.0015.
M60I: the sfGFP reporter fluorescence in series [1] stood at 0.12 ± 0.0029; in series [2] (ligand: 1 µM Pb), 0.319 ± 0.03; in series [2] (ligand: 30 µM Zn), 2.58 ± 0.063.
In the case of M60H, the sfGFP reporter fluorescence in series [1] was found to be 0.0623 ± 0.0015; in series [2] (ligand: 1 µM Pb), 0.0614 ± 0.00078; in series [2] (ligand: 30 µM Zn) it was 0.0638 ± 0.0015.
Take M60P: the sfGFP reporter fluorescence came to 0.0605 in series [1], 0.05974 ± 0.00052 in series [2] (ligand: 1 µM Pb) and 0.05516 ± 0.00026 in series [2] (ligand: 30 µM Zn).
For M60K, the sfGFP reporter fluorescence was 0.0605 ± 0.001 in series [1], 0.061 ± 0.0018 in series [2] (ligand: 1 µM Pb) and 0.0625 ± 0.0029 in series [2] (ligand: 30 µM Zn).
As to M60F, the sfGFP reporter fluorescence was determined as 1.94 ± 0.16 in series [1], 2.94 ± 0.1 in series [2] (ligand: 1 µM Pb) and 2.92 ± 0.028 in series [2] (ligand: 30 µM Zn).
In the case of M60A, the figures for the sfGFP reporter fluorescence in series [1], in series [2] (ligand: 1 µM Pb) and in series [2] (ligand: 30 µM Zn) were 0.0643 ± 0.0029, 0.0619 ± 0.001 and 0.0713 ± 0.007, respectively.
The like results for M60C were, in that order, 0.06029 ± 0.00026, 0.06304 ± 0.00052 and 0.06615 ± 0.00026.
Turning to M60L, the sfGFP reporter fluorescence in series [1] is 0.1063 ± 0.00052; in series [2] (ligand: 1 µM Pb) it was 0.295 ± 0.035; in series [2] (ligand: 30 µM Zn), 2.8 ± 0.031.
As for M60G, the sfGFP reporter fluorescence in series [1] stood at 0.0561 ± 0.0015; in series [2] (ligand: 1 µM Pb), 0.05772 ± 0.00026; in series [2] (ligand: 30 µM Zn), 0.0588 ± 0.0013.
Consider M60N, for which the sfGFP reporter fluorescence in series [1] came out at 0.0616 ± 0.001; in series [2] (ligand: 1 µM Pb), 0.0607 ± 0.0018; in series [2] (ligand: 30 µM Zn) it was 0.061 ± 0.0013.
For M60L P61N K104V L107C, the figures for the sfGFP reporter fluorescence in series [1], in series [2] (ligand: 1 µM Pb) and in series [2] (ligand: 30 µM Zn) were 0.535 ± 0.018, 1.66 ± 1.4 and 3.35 ± 0.1, respectively.
For E43A, in that order: 0.06304 ± 0.00052, 0.0969 ± 0.0044 and 1.66 ± 0.077.
On to E43H, for which the sfGFP reporter fluorescence in series [1] was determined as 0.0669 ± 0.00078; in series [2] (ligand: 1 µM Pb), 0.0891 ± 0.013; in series [2] (ligand: 30 µM Zn) it was 0.629 ± 0.0098.
Consider E43P, for which the sfGFP reporter fluorescence in series [1] is 0.05736 ± 0.00026; in series [2] (ligand: 1 µM Pb), 0.0674 ± 0.0093; in series [2] (ligand: 30 µM Zn), 0.7191 ± 0.0047.
Turning to E43K, the sfGFP reporter fluorescence in series [1] turned out to be 0.0594; in series [2] (ligand: 1 µM Pb), 0.109 ± 0.02; in series [2] (ligand: 30 µM Zn), 2.36 ± 0.049.
The like results for E43R were, in that order, 0.0643 ± 0.00078, 0.111 ± 0.025 and 2.24 ± 0.12.
For E43W, in that order: 0.061 ± 0.0013, 0.0995 ± 0.021 and 1.36 ± 0.2.
Turning to E43Q, the sfGFP reporter fluorescence in series [1] came out at 0.0614 ± 0.0018; in series [2] (ligand: 1 µM Pb), 0.076 ± 0.0029; in series [2] (ligand: 30 µM Zn), 1.16 ± 0.18.
The like results for E43L were, in that order, 0.05113 ± 0.00026, 0.0713 ± 0.007 and 1.01 ± 0.038.
In the case of E43D, the values for the sfGFP reporter fluorescence in series [1], in series [2] (ligand: 1 µM Pb) and in series [2] (ligand: 30 µM Zn) were 0.05754 ± 0.00052, 0.072 ± 0.012 and 0.744 ± 0.036, respectively.
In the case of E43Y, the sfGFP reporter fluorescence was 0.0599 ± 0.00078 in series [1], 0.0924 ± 0.017 in series [2] (ligand: 1 µM Pb) and 1.2 ± 0.058 in series [2] (ligand: 30 µM Zn).
Consider E43T, for which the sfGFP reporter fluorescence was 0.06341 ± 0.00052 in series [1], 0.104 ± 0.0054 in series [2] (ligand: 1 µM Pb) and 1.5 ± 0.14 in series [2] (ligand: 30 µM Zn).
Take E43I: the sfGFP reporter fluorescence in series [1] came to 0.05186 ± 0.00026; in series [2] (ligand: 1 µM Pb), 0.0806 ± 0.0093; in series [2] (ligand: 30 µM Zn), 1.11 ± 0.078.
Turning to E43C, the sfGFP reporter fluorescence in series [1] worked out at 0.06066 ± 0.00026; in series [2] (ligand: 1 µM Pb), 0.0887 ± 0.0042; in series [2] (ligand: 30 µM Zn), 0.481 ± 0.018.
For the variant E43F, the sfGFP reporter fluorescence in series [1] is 0.05846 ± 0.00026; in series [2] (ligand: 1 µM Pb), 0.0828 ± 0.015; in series [2] (ligand: 30 µM Zn), 0.99 ± 0.18.
Regarding E43S, the results for the sfGFP reporter fluorescence in series [1], in series [2] (ligand: 1 µM Pb) and in series [2] (ligand: 30 µM Zn) were 0.06102 ± 0.00026, 0.0889 ± 0.015 and 1.41 ± 0.17, respectively.
Consider E43M, for which the results for the sfGFP reporter fluorescence in series [1], in series [2] (ligand: 1 µM Pb) and in series [2] (ligand: 30 µM Zn) were 0.0597 ± 0.0047, 0.099 ± 0.0047 and 1.33 ± 0.083, respectively.
As for E43V, the sfGFP reporter fluorescence in series [1] came to 0.0605 ± 0.0015; in series [2] (ligand: 1 µM Pb), 0.0883 ± 0.014; in series [2] (ligand: 30 µM Zn) it was 1.17 ± 0.089.
The like results for E43N were, in that order, 0.0577 ± 0.006, 0.0828 ± 0.0036 and 1.21 ± 0.02.
Turning to E43G, the sfGFP reporter fluorescence in series [1] worked out at 0.0583 ± 0.0021; in series [2] (ligand: 1 µM Pb) it was 0.0883 ± 0.001; in series [2] (ligand: 30 µM Zn), 0.924 ± 0.066.
On to M60L P61N, for which the sfGFP reporter fluorescence turned out to be 0.25 ± 0.0062 in series [1], 1.01 ± 0.48 in series [2] (ligand: 1 µM Pb) and 3.5 ± 0.044 in series [2] (ligand: 30 µM Zn).
